Experimental data taken from the Immune Epitope Database (IEDB).
pKd: −log10 of the molar value.

Key:
HLA-A*03:01 [1] = test: IEDB peptide-MHC binding, purified MHC/competitive/fluorescence; filed as Kd, often an IC50 or EC50 that approximates it; ≥ and ≤ were set here for values at or beyond the usual limits of such assays
HLA-A*24:03 = test: as above
HLA-B*39:01 = test: as above
HLA-A*26:01 [2] = test: as above
HLA-A*68:02 = test: as above
HLA-B*57:01 = test: as above
HLA-B*18:01 = test: as above
HLA-B*15:01 [3] = test: as above
HLA-A*02:01 [4] = test: as above
HLA-A*02:12 = test: as above
HLA-A*02:19 = test: as above
HLA-A*29:02 = test: as above
HLA-A*02:16 = test: as above
HLA-A*02:03 = test: as above
HLA-B*51:01 = test: as above
HLA-B*27:03 = test: as above
HLA-A*23:01 = test: as above
HLA-A*02:11 = test: as above
HLA-B*46:01 [5] = test: as above
HLA-B*15:17 = test: as above
HLA-A*69:01 [6] = test: as above
HLA-A*03:01 [7] = test: IEDB peptide-MHC binding, purified MHC/direct/fluorescence; filed as Kd, often an IC50 or EC50 that approximates it; ≥ and ≤ were set here for values at or beyond the usual limits of such assays
HLA-A*31:01 [8] = test: as above; conditions: source organism: Influenza A virus (A/turkey/Minnesota/511/1978(H9N2))
HLA-A*26:01 [9] = test: as above; conditions: source organism: Influenza A virus (A/shorebird/Delaware/141/2002(H9N9))
HLA-A*24:02 = test: as above
HLA-B*27:05 = test: as above
HLA-B*15:01 [10] = test: as above
HLA-A*02:01 [11] = test: as above
HLA-B*07:02 = test: as above
HLA-B*40:01 = test: as above
HLA-A*11:01 = test: as above
HLA-B*08:01 = test: as above
HLA-A*01:01 = test: as above
HLA-B*44:02 = test: as above
HLA-B*58:01 = test: as above
HLA-A*69:01 [12] = test: as above
HLA-B*08:02 = test: as above; conditions: source organism: Influenza A virus(A/swine/Shandong/fNY/2003(H9N2))
HLA-B*46:01 [13] = test: as above
HLA-A*31:01 [14] = test: IEDB peptide-MHC binding, purified MHC/competitive/fluorescence; filed as Kd, often an IC50 or EC50 that approximates it; ≥ and ≤ were set here for values at or beyond the usual limits of such assays; conditions: source organism: Entamoeba histolytica HM-1:IMSS
[15] = source organism: Bacillus cereus G9241
[16] = source organism: Influenza A virus (A/turkey/Minnesota/511/1978(H9N2))
[17] = source organism: Influenza A virus (A/Puerto Rico/8/34/Mount Sinai(H1N1))
[18] = source organism: Influenza A virus (A/egret/Hong Kong/757.3/2002(H5N1))
[19] = source organism: Giardia lamblia ATCC 50803
[20] = source organism: Escherichia coli O157:H7
[21] = source organism: Entamoeba histolytica HM-1:IMSS
[22] = source organism: Influenza A virus (A/red knot/Delaware/2561/1987(H10N5))

Measured: pKd

DEEAINLFH
≤ 4.70: HLA-A*03:01 [1]; [15] | HLA-A*24:03; [15] | HLA-B*39:01; [15] | HLA-A*26:01 [2]; [15] | HLA-A*68:02; [15] | HLA-B*57:01; [15] | HLA-B*15:01 [3]; [15] | HLA-A*02:01 [4]; [15] | HLA-A*02:12; [15] | HLA-A*02:19; [15] | HLA-A*29:02; [15] | HLA-A*02:16; [15] | HLA-A*02:03; [15] | HLA-B*51:01; [15] | HLA-B*27:03; [15] | HLA-A*23:01; [15] | HLA-A*02:11; [15] | HLA-B*46:01 [5]; [15] | HLA-B*15:17; [15] | HLA-A*69:01 [6]; [15]
6.16: HLA-B*18:01; [15]

DLLENLQAY
5.57: HLA-B*15:01 [10]; [17]
6.94: HLA-A*26:01 [9]
≤ 4.70: HLA-A*03:01 [7]; [16] | HLA-A*31:01 [8] | HLA-A*24:02; [16] | HLA-B*27:05; [16] | HLA-A*02:01 [11]; [16] | HLA-B*07:02; [16] | HLA-B*40:01; [16] | HLA-A*11:01; [16] | HLA-B*08:01; [16] | HLA-A*01:01; [16] | HLA-B*44:02; [16] | HLA-B*58:01; [16] | HLA-A*69:01 [12]; [16]

EEFTMVGRR
≤ 4.70: HLA-B*08:02 | HLA-A*24:02; [18] | HLA-B*27:05; [18] | HLA-B*15:01 [10]; [18] | HLA-B*07:02; [18] | HLA-B*08:01; [18] | HLA-A*01:01; [18] | HLA-B*44:02; [18] | HLA-B*58:01; [18] | HLA-B*46:01 [13]; [18] | HLA-A*69:01 [12]; [18]
5.99: HLA-A*03:01 [7]; [17]

LLDDGWAGE
5.22: HLA-A*02:12; [19]
≤ 4.70: HLA-A*03:01 [1]; [19] | HLA-A*24:03; [19] | HLA-B*39:01; [19] | HLA-A*26:01 [2]; [19] | HLA-A*68:02; [19] | HLA-B*57:01; [19] | HLA-B*18:01; [19] | HLA-B*15:01 [3]; [19] | HLA-A*02:01 [4]; [19] | HLA-A*02:19; [19] | HLA-A*29:02; [19] | HLA-A*02:03; [19] | HLA-B*51:01; [19] | HLA-B*27:03; [19] | HLA-A*23:01; [19] | HLA-A*02:11; [19] | HLA-B*46:01 [5]; [19] | HLA-B*15:17; [19] | HLA-A*69:01 [6]; [19]

PLKVKDIPF
≤ 4.70: HLA-A*03:01 [7]; [20] | HLA-A*24:02; [20] | HLA-B*27:05; [20] | HLA-A*02:01 [11]; [20] | HLA-B*07:02; [20] | HLA-B*40:01; [20] | HLA-A*11:01; [20] | HLA-A*01:01; [20] | HLA-B*44:02; [20] | HLA-B*58:01; [20] | HLA-B*46:01 [13]; [20]
6.71: HLA-B*15:01 [10]; [20]

RTFDRFFEE
≤ 4.70: HLA-A*03:01 [1]; [21] | HLA-A*24:03; [21] | HLA-B*39:01; [21] | HLA-A*26:01 [2]; [21] | HLA-A*68:02; [21] | HLA-B*57:01; [21] | HLA-B*18:01; [21] | HLA-B*15:01 [3]; [21] | HLA-A*02:01 [4]; [21] | HLA-A*02:12; [21] | HLA-A*02:19; [21] | HLA-A*29:02; [21] | HLA-A*02:16; [21] | HLA-A*02:03; [21] | HLA-B*51:01; [21] | HLA-B*27:03; [21] | HLA-A*23:01; [21] | HLA-A*02:11; [21] | HLA-B*46:01 [5]; [21] | HLA-A*69:01 [6]; [21]
6.50: HLA-A*31:01 [14]

VMTDGPANK
≤ 4.70: HLA-A*24:03; [22] | HLA-B*39:01; [22] | HLA-A*26:01 [2]; [22] | HLA-B*57:01; [22] | HLA-B*18:01; [22] | HLA-B*15:01 [3]; [22] | HLA-A*02:01 [4]; [22] | HLA-A*02:12; [22] | HLA-A*02:19; [22] | HLA-A*29:02; [22] | HLA-A*02:03; [22] | HLA-B*51:01; [22] | HLA-B*27:03; [22] | HLA-A*23:01; [22] | HLA-B*46:01 [5]; [22] | HLA-B*15:17; [22]
6.70: HLA-A*02:11; [22]
